Measurements as given in the RNAGym collection of RNA variant scans (doi:10.7554/elife.80360).

B1: HDV Ribozyme (parent)
chain: GGCCGGCAUGGUCCCAGCCUCCUCGCUGGCGCCGGCUGGGCAACAUUCCGAGGGGACCGUCCCCUCGGUAAUGGCGAAUGGGACCCA

Variants of: B1
Assay: self-cleavage, relative activity (ratio to wild type); higher = more cleavage; co-transcriptional

Variant | self-cleavage
U23A A43G | 0.516
C24A C62A | 0.946
C24A C62U | 0.89
U23A C49U | 1.13
C22G C84U | 0.0563
C24A | 0.767
C24G | 0.13
U23A G50U | 0.964
C24A U60A | 0.535
C24A C41G | 0.536
C22G C49G | 0.0277
U23A C36G | 0.17
U23C A56U | 0.987
C22U G73A | 0.192
C22U C86U | 0.674
C24A C44A | 0.217
U23A G28C | 0.142
U23A G28A | 0
C24A A71U | 0.731
C24A A71G | 0.61
C24A A71C | 0.38
C22G C41G | 0.0831
C22G U79A | 0.0615
C24A G59A | 0.842

Variant | self-cleavage
U23C C33U | 0.697
U23A A42U | 0.57
U23A G35U | 0.431
U23A G35C | 0.212
U23C G73A | 0.525
U23C G73U | 0.148
U23C G73C | 0.269
C24A G80U | 0.198
U23G A42C | 0
C22A U79G | 0.0573
U23C A70U | 0.917
U23G G67C | 0.59
U23A U47A | 0.877
U23A U47G | 0.748
C22G C66U | 0.0308
U23G C32U | 0.6
U23G C32A | 0.0652
U23A A45C | 0.344
C22U G67U | 0.548
C22A U65A | 0.237
U23C C86U | 0.6
U23C C86A | 0.857
U23C A71G | 0.9
U23A G81C | 0.306

Variant | self-cleavage
U23A G81A | 0.305
U23A G81U | 0.134
C24A G74C | 0.0326
C22G A71U | 0.0923
U23A C48A | 0.88
C22G A45U | 0.0415
U23A A70C | 1.01
U23C A77G | 0.587
U23C A77U | 0.353
C22G G38U | 0.117
U23C G38U | 0.175
U23C C62A | 0.762
C22U U37C | 0.415
C22U G55C | 0.642
C24A A78C | 0.133
C24A C64A | 0.803
U23A A78G | 0.697
C22G G25A | 0.0396
C22U C57A | 0.846
C24A G81U | 0.185
C22U C63U | 0.76
U23G G50U | 0.607
U23C U27C | 0.65
U23G G76A | 0.895

Variant | self-cleavage
C22G G67U | 0.0519
C22A U46G | 0.172
C24G C48G | 0.0941
C24A G55A | 0.684
U23A U37C | 1.08
U23A U37A | 0.0997
C22G U72C | 0
C22U G52U | 0.795
U23G A77G | 0.554
U23A C32U | 0.929
U23A C32G | 0.253
C22U G81A | 0.0911
C22G G81A | 0.0528
C22G G31A | 0.121
C22A G67C | 0.337
U23A C33U | 1.05
U23A C33A | 0.237
C24A C30A | 0.237
C24A U27C | 0.0791
C24A U27A | 0.639
U23C G68A | 0.87
U23C G68U | 0.897
C22U A45G | 0.656
C22G G29A | 0.0886

Variant | self-cleavage
C22G G29C | 0.0536
C22U G80C | 0.0712
C22U G80U | 0.11
C22U G80A | 0.113
C24G A42G | 0.185
C24G A42U | 0
U23G A70C | 0.571
C22G G55C | 0.109
U23G C66G | 0.32
C22G C48A | 0.141
U23A C41G | 0.849
U23G G31C | 0.178
U23A C26U | 1.08
U23A C26A | 1.23
C22A G81C | 0.128
C22U A51G | 0.721
C22U C24A | 0.302
C22U C24U | 0.22
U23G G73U | 0.0604
U23G G73C | 0.0773
U23G G73A | 0.259
U23A A51U | 0.923
C22A U69G | 0.394
C22A U69C | 0.393

Variant | self-cleavage
C24A A56C | 0.966
C24A A56U | 0.872
C22G G68A | 0.132
C22U G34U | 0.145
U23G C26A | 0.739
U23C C84U | 0.831
U23C C84A | 0.911
U23C A45C | 0.573
U23G C85G | 0.643
U23G C85U | 0.898
C22U A42U | 0.138
C22U A42C | 0.122
U23C G81A | 0.591
C22A G55U | 0.353
C24A A42C | 0.0639
U23G A56U | 0.759
U23G C84A | 0.712
U23G G34A | 0.0811
C22G A51U | 0.0339
U23G C41G | 0.597
C22G C33G | 0
C22G C33U | 0.0268
C22G C33A | 0
U23G G39C | 0.158

Variant | self-cleavage
C22A G59C | 0.361
C22A U23G | 0
C22A U23C | 0.0978
U23C A78C | 0.231
U23A G39U | 0.696
U23G C24G | 0.16
C22U G53U | 0.61
C22U G53A | 0.821
U23C A42G | 0.227
C22A U60G | 0.177
U23G U72C | 0.391
C22G U60C | 0.0332
C22G G80A | 0.135
U23G | 0.731
U23A | 0.985
U23C | 0.987
C24A G35C | 0.0692
C22G G39U | 0.102
C22U C84G | 0.291
U23C G82C | 0.465
U23G C75U | 0.089
U23G G28U | 0.0326
U23G G28A | 0.0941
U23G G54U | 0.9

Variant | self-cleavage
U23G G54A | 0.928
U23C G34C | 0.172
C22G G52U | 0.0314
C22G G52A | 0.112
U23C G76A | 1.22
U23C G76U | 1.14
C22G A78U | 0.0396
U23A G40A | 1.14
U23G U60C | 0.831
U23A U72G | 0.302
C24G A78U | 0
C24G C44A | 0.0297
C24G C44U | 0.0978
C24A G53C | 0.785
C24A G53A | 0.893
C22G G40A | 0
C22G G40C | 0.0665
C22U A70C | 0.656
C22U C58A | 0.914
C22U C58U | 0.684
C24A C32A | 0.106
C22U G40U | 0.394
C22U G40A | 0.643
C22U G40C | 0.166

Variant | self-cleavage
U23A U60A | 0.98
U23A U60G | 0.923
C22G A87G | 0.106
C24A G34C | 0.0852
C24A G34A | 0.166
U23G U46G | 0.356
U23C C63G | 0.813
C22U C32U | 0.65
C22U A43G | 0.116
C24A G31C | 0.0583
U23A G54A | 1.01
U23A G54C | 1.15
C22A U72C | 0
U23A C62U | 0.966
C24A A70G | 0.804
U23A G74C | 0.323
U23C G53A | 0.849
C24A C49U | 0.623
C22G G76A | 0.0354
C24A C57G | 0.869
U23C C30A | 0.369
U23G A83C | 0
U23G A83U | 0.107
U23A C75A | 0.277

Variant | self-cleavage
U23A C75G | 0.116
C24A U69G | 0.623
C24A U69C | 0.712
U23A G25U | 0.104
U23A G80C | 0.101
C22G G53U | 0.0563
C22U U23C | 0.68
C22G A42U | 0.0639
C22A G53C | 0.157
C22U G74U | 0.0683
C24G A45U | 0.0504
U23G G68C | 0.482
U23G G68U | 0.969
U23C A87C | 0.929
U23G G82A | 0.0449
U23G G82U | 0.17
C22U G29U | 0.101
C22U G29A | 0.249
U23G G25C | 0
C22U G50A | 0.745
C22U C33G | 0.163
C22G G35C | 0.0978
C22G U65G | 0.155
C22G U65A | 0.0504

Variant | self-cleavage
C24G C30G | 0.0875
C22U C44G | 0.095
C22U A77U | 0.233
U23G C63U | 0.469
U23C G67C | 0.969
C24A G28C | 0.0773
U23G C33U | 0.569
U23A C58A | 1.12
C22G U27G | 0.0978
C22G U27A | 0.208
U23C C44G | 0.185
U23C C44A | 0.462
U23A C84A | 0.944
C22G G50A | 0.0504
C22G G50C | 0
U23G U65G | 0.674
U23A G59A | 1.12
U23A G59U | 1.09
U23A G59C | 0.811
C22U G38U | 0.149
U23C C66A | 0.982
C24A C36G | 0.0678
C24A C36U | 0.254
U23C U37A | 0.0536

Variant | self-cleavage
U23C U37C | 1.15
U23C U60A | 0.877
U23C U60C | 0.858
U23C G35U | 0.354
C22U G68A | 0.631
C22U U72C | 0.193
C22G G54U | 0.0841
C24A G54A | 0.774
C24A G54C | 0.741
C24A G39U | 0.211
C22U U47G | 0.58
C22U C49A | 0.665
C22U C49U | 0.45
C22U C49G | 0.684
C24A C84G | 0.563
C22G G59A | 0.124
C22G C85G | 0.0396
C24A G29U | 0.0369
C24G C26A | 0.886
U23G U79C | 0.125
U23G U79G | 0.192
C22U G28U | 0.148
C22U C64G | 0.751
U23G C64G | 0.95

Variant | self-cleavage
U23C A43C | 0.465
U23C A43G | 0.277
U23A U27G | 0.762
C22U G82C | 0.198
U23G G52U | 0.585
C24A U47A | 0.554
C24A G68U | 0.776
U23G G59U | 0.886
C22A U47G | 0.232
U23A G52A | 1.02
U23C C85G | 0.869
U23G G74U | 0.0863
U23G G74C | 0.188
C22G U23A | 0.0941
C22G U23G | 0
U23C C32U | 0.587
U23C C32A | 0.125
U23A U65A | 0.778
U23A G76U | 0.941
U23G U27G | 0.529
U23G C44U | 0.325
U23C G59A | 1.19
C22U C85A | 0.59
U23C G52C | 1.01

Variant | self-cleavage
C24A C61A | 0.906
C24A A51C | 0.516
C24A C85A | 0.591
C22A G68A | 0.298
C22G A83G | 0.126
U23C G39A | 0.519
U23C G40U | 0.587
U23C G54C | 0.673
U23C C64U | 0.786
C24G A70G | 0.0594
C22G C63G | 0
C22G C63A | 0.166
C22U G76C | 0.763
U23A A87G | 0.816
U23A A87C | 1
U23A A87U | 0.99
U23G G29A | 0
U23G A87C | 0.799
U23A A56G | 1.02
C22U C48U | 0.727
C22G A77C | 0.0426
U23G C58A | 0.877
